Data published in patent publication US12247238B2, “Mogroside biocatalysis methods and products” (The Coca-Cola Company, priority 2019, dated 2025).

B1: E200A: A. oryzae β-galactosidase variant, E200A (protein, UniProt Q2UCU3 19-1005, looked up, variant E200A)
Beta-galactosidase A: ASIKHRLNGFTILEHPDPAKRDLLQDIVTWDDKSLFINGERIMLFSGEVHPFRLPVPSLWLDIFHKIRALGFNCVSFYIDWALLEGKPGDYRAEGIFALEPFFDAAKEAGIYLIARPGSYINAEVSGGGFPGWLQRVNGTLRSSDEPFLKATDNYIANAAAAVAKAQITNGGPVILYQPENAYSGGCCGVKYPDADYMQYVMDQARKADIVVPFISNDASPSGHNAPGSGTGAVDIYGHDSYPLGFDCANPSVWPEGKLPDNFRTLHLEQSPSTPYSLLEFQAGAFDPWGGPGFEKCYALVNHEFSRVFYRNDLSFGVSTFNLYMTFGGTNWGNLGHPGGYTSYDYGSPITETRNVTREKYSDIKLLANFVKASPSYLTATPRNLTTGVYTDTSDLAVTPLIGDSPGSFFVVRHTDYSSQESTSYKLKLPTSAGNLTIPQLEGTLSLNGRDSKIHVVDYNVSGTNIIYSTAEVFTWKKFDGNKVLVLYGGPKEHHELAIASKSNVTIIEGSDSGIVSTRKGSSVIIGWDVSSTRRIVQVGDLRVFLLDRNSAYNYWVPELPTEGTSPGFSTSKTTASSIIVKAGYLLRGAHLDGADLHLTADFNATTPIEVIGAPTGAKNLFVNGEKASHTVDKNGIWSSEVKYAAPEIKLPGLKDLDWKYLDTLPEIKSSYDDSAWVSADLPKTKNTHRPLDTPTSLYSSDYGFHTGYLIYRGHFVANGKESEFFIRTQGGSAFGSSVWLNETYLGSWTGADYAMDGNSTYKLSQLESGKNYVITVVIDNLGLDENWTVGEETMKNPRGILSYKLSGQDASAITWKLTGNLGGEDYQDKVRGPLNEGGLYAERQGFHQPQPPSESWESGSPLEGLSKPGIGFYTAQFDLDLPKGWDVPLYFNFGNNTQAARAQLYVNGYQYGKFTGNVGPQTSFPVPEGILNYRGTNYVALSLWALESDGAKLGSFELSYTTPVLTGYGNVESPEQPKYEQRKGAY
B2: D258A: A. oryzae β-galactosidase variant, D258A (protein, UniProt Q2UCU3 19-1005, looked up, variant D258A)
Beta-galactosidase A: ASIKHRLNGFTILEHPDPAKRDLLQDIVTWDDKSLFINGERIMLFSGEVHPFRLPVPSLWLDIFHKIRALGFNCVSFYIDWALLEGKPGDYRAEGIFALEPFFDAAKEAGIYLIARPGSYINAEVSGGGFPGWLQRVNGTLRSSDEPFLKATDNYIANAAAAVAKAQITNGGPVILYQPENEYSGGCCGVKYPDADYMQYVMDQARKADIVVPFISNDASPSGHNAPGSGTGAVDIYGHASYPLGFDCANPSVWPEGKLPDNFRTLHLEQSPSTPYSLLEFQAGAFDPWGGPGFEKCYALVNHEFSRVFYRNDLSFGVSTFNLYMTFGGTNWGNLGHPGGYTSYDYGSPITETRNVTREKYSDIKLLANFVKASPSYLTATPRNLTTGVYTDTSDLAVTPLIGDSPGSFFVVRHTDYSSQESTSYKLKLPTSAGNLTIPQLEGTLSLNGRDSKIHVVDYNVSGTNIIYSTAEVFTWKKFDGNKVLVLYGGPKEHHELAIASKSNVTIIEGSDSGIVSTRKGSSVIIGWDVSSTRRIVQVGDLRVFLLDRNSAYNYWVPELPTEGTSPGFSTSKTTASSIIVKAGYLLRGAHLDGADLHLTADFNATTPIEVIGAPTGAKNLFVNGEKASHTVDKNGIWSSEVKYAAPEIKLPGLKDLDWKYLDTLPEIKSSYDDSAWVSADLPKTKNTHRPLDTPTSLYSSDYGFHTGYLIYRGHFVANGKESEFFIRTQGGSAFGSSVWLNETYLGSWTGADYAMDGNSTYKLSQLESGKNYVITVVIDNLGLDENWTVGEETMKNPRGILSYKLSGQDASAITWKLTGNLGGEDYQDKVRGPLNEGGLYAERQGFHQPQPPSESWESGSPLEGLSKPGIGFYTAQFDLDLPKGWDVPLYFNFGNNTQAARAQLYVNGYQYGKFTGNVGPQTSFPVPEGILNYRGTNYVALSLWALESDGAKLGSFELSYTTPVLTGYGNVESPEQPKYEQRKGAY
B3: D258Q: A. oryzae β-galactosidase variant, D258Q (protein, UniProt Q2UCU3 19-1005, looked up, variant D258Q)
Beta-galactosidase A: ASIKHRLNGFTILEHPDPAKRDLLQDIVTWDDKSLFINGERIMLFSGEVHPFRLPVPSLWLDIFHKIRALGFNCVSFYIDWALLEGKPGDYRAEGIFALEPFFDAAKEAGIYLIARPGSYINAEVSGGGFPGWLQRVNGTLRSSDEPFLKATDNYIANAAAAVAKAQITNGGPVILYQPENEYSGGCCGVKYPDADYMQYVMDQARKADIVVPFISNDASPSGHNAPGSGTGAVDIYGHQSYPLGFDCANPSVWPEGKLPDNFRTLHLEQSPSTPYSLLEFQAGAFDPWGGPGFEKCYALVNHEFSRVFYRNDLSFGVSTFNLYMTFGGTNWGNLGHPGGYTSYDYGSPITETRNVTREKYSDIKLLANFVKASPSYLTATPRNLTTGVYTDTSDLAVTPLIGDSPGSFFVVRHTDYSSQESTSYKLKLPTSAGNLTIPQLEGTLSLNGRDSKIHVVDYNVSGTNIIYSTAEVFTWKKFDGNKVLVLYGGPKEHHELAIASKSNVTIIEGSDSGIVSTRKGSSVIIGWDVSSTRRIVQVGDLRVFLLDRNSAYNYWVPELPTEGTSPGFSTSKTTASSIIVKAGYLLRGAHLDGADLHLTADFNATTPIEVIGAPTGAKNLFVNGEKASHTVDKNGIWSSEVKYAAPEIKLPGLKDLDWKYLDTLPEIKSSYDDSAWVSADLPKTKNTHRPLDTPTSLYSSDYGFHTGYLIYRGHFVANGKESEFFIRTQGGSAFGSSVWLNETYLGSWTGADYAMDGNSTYKLSQLESGKNYVITVVIDNLGLDENWTVGEETMKNPRGILSYKLSGQDASAITWKLTGNLGGEDYQDKVRGPLNEGGLYAERQGFHQPQPPSESWESGSPLEGLSKPGIGFYTAQFDLDLPKGWDVPLYFNFGNNTQAARAQLYVNGYQYGKFTGNVGPQTSFPVPEGILNYRGTNYVALSLWALESDGAKLGSFELSYTTPVLTGYGNVESPEQPKYEQRKGAY
B4: E200A; E298A: A. oryzae β-galactosidase double variant E200A, E298A (protein, UniProt Q2UCU3 19-1005, looked up, variant E200A E298A)
Beta-galactosidase A: ASIKHRLNGFTILEHPDPAKRDLLQDIVTWDDKSLFINGERIMLFSGEVHPFRLPVPSLWLDIFHKIRALGFNCVSFYIDWALLEGKPGDYRAEGIFALEPFFDAAKEAGIYLIARPGSYINAEVSGGGFPGWLQRVNGTLRSSDEPFLKATDNYIANAAAAVAKAQITNGGPVILYQPENAYSGGCCGVKYPDADYMQYVMDQARKADIVVPFISNDASPSGHNAPGSGTGAVDIYGHDSYPLGFDCANPSVWPEGKLPDNFRTLHLEQSPSTPYSLLAFQAGAFDPWGGPGFEKCYALVNHEFSRVFYRNDLSFGVSTFNLYMTFGGTNWGNLGHPGGYTSYDYGSPITETRNVTREKYSDIKLLANFVKASPSYLTATPRNLTTGVYTDTSDLAVTPLIGDSPGSFFVVRHTDYSSQESTSYKLKLPTSAGNLTIPQLEGTLSLNGRDSKIHVVDYNVSGTNIIYSTAEVFTWKKFDGNKVLVLYGGPKEHHELAIASKSNVTIIEGSDSGIVSTRKGSSVIIGWDVSSTRRIVQVGDLRVFLLDRNSAYNYWVPELPTEGTSPGFSTSKTTASSIIVKAGYLLRGAHLDGADLHLTADFNATTPIEVIGAPTGAKNLFVNGEKASHTVDKNGIWSSEVKYAAPEIKLPGLKDLDWKYLDTLPEIKSSYDDSAWVSADLPKTKNTHRPLDTPTSLYSSDYGFHTGYLIYRGHFVANGKESEFFIRTQGGSAFGSSVWLNETYLGSWTGADYAMDGNSTYKLSQLESGKNYVITVVIDNLGLDENWTVGEETMKNPRGILSYKLSGQDASAITWKLTGNLGGEDYQDKVRGPLNEGGLYAERQGFHQPQPPSESWESGSPLEGLSKPGIGFYTAQFDLDLPKGWDVPLYFNFGNNTQAARAQLYVNGYQYGKFTGNVGPQTSFPVPEGILNYRGTNYVALSLWALESDGAKLGSFELSYTTPVLTGYGNVESPEQPKYEQRKGAY
B5: E200Q; E298Q: A. oryzae β-galactosidase double variant E200Q, E298Q (protein, UniProt Q2UCU3 19-1005, looked up, variant E200Q E298Q)
Beta-galactosidase A: ASIKHRLNGFTILEHPDPAKRDLLQDIVTWDDKSLFINGERIMLFSGEVHPFRLPVPSLWLDIFHKIRALGFNCVSFYIDWALLEGKPGDYRAEGIFALEPFFDAAKEAGIYLIARPGSYINAEVSGGGFPGWLQRVNGTLRSSDEPFLKATDNYIANAAAAVAKAQITNGGPVILYQPENQYSGGCCGVKYPDADYMQYVMDQARKADIVVPFISNDASPSGHNAPGSGTGAVDIYGHDSYPLGFDCANPSVWPEGKLPDNFRTLHLEQSPSTPYSLLQFQAGAFDPWGGPGFEKCYALVNHEFSRVFYRNDLSFGVSTFNLYMTFGGTNWGNLGHPGGYTSYDYGSPITETRNVTREKYSDIKLLANFVKASPSYLTATPRNLTTGVYTDTSDLAVTPLIGDSPGSFFVVRHTDYSSQESTSYKLKLPTSAGNLTIPQLEGTLSLNGRDSKIHVVDYNVSGTNIIYSTAEVFTWKKFDGNKVLVLYGGPKEHHELAIASKSNVTIIEGSDSGIVSTRKGSSVIIGWDVSSTRRIVQVGDLRVFLLDRNSAYNYWVPELPTEGTSPGFSTSKTTASSIIVKAGYLLRGAHLDGADLHLTADFNATTPIEVIGAPTGAKNLFVNGEKASHTVDKNGIWSSEVKYAAPEIKLPGLKDLDWKYLDTLPEIKSSYDDSAWVSADLPKTKNTHRPLDTPTSLYSSDYGFHTGYLIYRGHFVANGKESEFFIRTQGGSAFGSSVWLNETYLGSWTGADYAMDGNSTYKLSQLESGKNYVITVVIDNLGLDENWTVGEETMKNPRGILSYKLSGQDASAITWKLTGNLGGEDYQDKVRGPLNEGGLYAERQGFHQPQPPSESWESGSPLEGLSKPGIGFYTAQFDLDLPKGWDVPLYFNFGNNTQAARAQLYVNGYQYGKFTGNVGPQTSFPVPEGILNYRGTNYVALSLWALESDGAKLGSFELSYTTPVLTGYGNVESPEQPKYEQRKGAY

test: β-galactosidase ONPG activity assay; type: biochemical; settings: oNPG substrate, over 30 minutes
Procedure: Standard β-galactosidase assays were performed at room temperature using o-nitrophenyl-β-D-galactopyranoside (ONPG, Sigma) as a substrate in […] with detection of o-nitrophenol release at 420 nm (UV-Spectra Max Spectrophotometer, Molecular Devices, USA). A typical reaction contained 50 mM sodium citrate buffer pH 5.6, 10 mM magnesium chloride and 100 mM potassium chloride with 2 mM ONPG and the desired amount of enzyme (usually […]). Partially purified AoBG (Sigma G5160, USA) was used as a positive control at a final concentration of 1 U mL−1. Vmax was calculated using the SpectraMax Plus software (Molecular Devices, USA) and when required kinetics were determined by varying the concentration of substrate and kinetic determinants calculated using Hyper™ (J. S. Easterby, Liverpool University).
Cells expressing enzyme variants grown in buffered minimal medium were induced for 72 hr with 1% methanol (refreshed every 24 hr), the culture supernatant harvested and assayed for standard ONPG activity over 30 minutes and mogroside V activity at pH 5.6, 37° C. for 72 hrs. The resultant activity data (Table 2) identified E200 and D258 as the likely catalytic pair for acid/base and nucleophilic attack of mogroside V by the A. oryzae β-glucosidase enzyme.

oNPG, INACTIVE:
B1
B2
B3
B4
B5
